Test results taken from article PMC8809517, “Cofactor-independent RNA editing by a synthetic S-type PPR protein”.
Positions count from the first letter of the chain named.

T1: GFP-9S library array, motif 4 ND N98P;D124C (synthetic construct, N98P;D124C)
T1 chain: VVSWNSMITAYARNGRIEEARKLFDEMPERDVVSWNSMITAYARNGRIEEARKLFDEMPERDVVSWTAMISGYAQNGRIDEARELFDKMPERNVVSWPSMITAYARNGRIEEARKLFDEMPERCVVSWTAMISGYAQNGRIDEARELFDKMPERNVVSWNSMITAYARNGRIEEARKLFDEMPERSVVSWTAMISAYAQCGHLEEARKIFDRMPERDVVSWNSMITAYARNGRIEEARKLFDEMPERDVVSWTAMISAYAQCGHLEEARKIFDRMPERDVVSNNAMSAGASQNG

T2: GFP-9S library array, motif 4 ND N98A;D124C (synthetic construct, N98A;D124C)
T2 chain: T1 chain with P98A

T3: GFP-9S library array, motif 4 ND N98F;D124R (synthetic construct, N98F;D124R)
T3 chain: T1 chain with P98F, C124R

T4: GFP-9S library array, motif 4 ND N98D;D124H (synthetic construct, N98D;D124H)
T4 chain: T1 chain with P98D, C124H

T5: GFP-9S library array, motif 4 ND N98C;D124H (synthetic construct, N98C;D124H)
T5 chain: T1 chain with P98C, C124H


How the values were obtained:
Experiment in all cases: high-throughput RNA pulldown from lysate on Ni-NTA beads; HRP: 50 mM Tris pH 8, 150 mM NaCl, 1 mM beta-mercaptoethanol, 50 ug/ml BSA, 3 ug/ml yeast RNA, 0.5% heparin; ITC and FP: Tris pH 8, 200 mM KCl, 5% glycerol; MST: 50 mM Tris pH 8, 200 mM NaCl, 1 mM DTT, BSA, heparin, 0.05% Tween 20
Details in all cases: tags: N-terminal His-eGFP
[1] = biological target: T1, GFP-9S library array, motif 4 ND …
[2] = biological target: T2, GFP-9S library array, motif 4 ND …
[3] = biological target: T3, GFP-9S library array, motif 4 ND …
[4] = biological target: T4, GFP-9S library array, motif 4 ND …
[5] = biological target: T5, GFP-9S library array, motif 4 ND …

| Binder | Kd ([1]; label: 5' Cy5) [nM] | Kd ([2]; label: 5' Cy5) [nM] | Kd ([3]; label: 5' Cy5) [nM] | Kd ([4]; label: 5' Cy5) [nM] | Kd ([5]; label: 5' Cy5) [nM] | Kd ([1]; label: 5' IRDye 800CW) [nM] | Kd ([2]; label: 5' IRDye 800CW) [nM] | Kd ([3]; label: 5' IRDye 800CW) [nM] | Kd ([4]; label: 5' IRDye 800CW) [nM] | Kd ([5]; label: 5' IRDye 800CW) [nM] |
| --- | --- | --- | --- | --- | --- | --- | --- | --- | --- | --- |
| AUUAGACGUGA (ssRNA) [Cy5-rpoA-G] | 297 | 73.1 | 107 | 120 | 57.7 | – | – | – | – | – |
| AUUAUACGUGA (ssRNA) [IR-rpoA-U] | – | – | – | – | – | 874 | 92.2 | 176 | 182 | 152 |
| AUUACACGUGA (ssRNA) [Cy5-rpoA] | 332 | 112 | 117 | 123 | 124 | – | – | – | – | – |
| AUUAAACGUGA (ssRNA) [IR-rpoA-A] | – | – | – | – | – | 660 | 163 | 85.1 | 311 | 25.4 |
